Results published in US9872893B2, “Endolysins active against Staphylococcus bacteria, pharmaceutical compositions, and methods relating thereto” (priority 2014, dated 2018).

What was measured:
[1] = system: stationary phase S. aureus NRS-14; assay: turbidity reduction assay (lytic activity); format: cell-based, Staphylococcus aureus; settings: for decrease in optical density: 15 minutes
Protocol: Lytic activity was based on turbidity reduction assay (Nelson D C et al. (2012) Endolysins as antimicrobials. Adv Virus Res 83:299-365). Briefly, bacterial cells were centrifuged (4,000 RPM, 5 minutes, 4° C.), re-suspended in buffer and mixed 1:1 (v/v) with endolysin to a final OD600=1. OD600 readings were taken every 15 seconds for 20 minutes at 37° C. Endolysin activity was equated to the Vmax dictated by the linear portion of the resulting killing curve. Each experiment was performed in triplicate.
To determine dose response, PlyGRCS was serially diluted and each dosage (100 μl) was added in triplicate to a 96-well polystyrene microtiter plate (Nest Biotech Co, Ltd) just before addition of bacterial cells (100 μl) according to the turbidity reduction assay described above. For optimum pH determination, bacterial cells were suspended in 40 mM boric acid/phosphoric acid (BP) buffer, pH 3-11, and were challenged against PlyGRCS. The influence of NaCl on PlyGRCS activity was tested in BP buffer at the experimentally determined pH optimum using the same assay. The effect of divalent cations was determined using the turbidity reduction assay with several modifications. First, PlyGRCS was incubated at room temperature in PBS or PBS supplemented with 5 mM EDTA for 10 minutes. Second, the EDTA-treated samples received either no further treatment, or were supplemented with 6 mM CaCl2 or 6 mM MgCl2. Finally, the lytic active of the samples was then immediately assayed and compared to PlyGRCS in PBS prior to EDTA inactivation. Kinetic stability was evaluated (Son B et al. (2012) Characterization of LysB4, an endolysin from the Bacillus cereus-infecting bacteriophage B4. BMC Microbiol 12:33) with minor modifications. Lytic assays were performed in optimal conditions after PlyGRCS was incubated at indicated temperatures for 30 minutes and subsequently recovered on ice for 5 minutes.

[2] = circular dichroism melting experiments; format: physicochemical; settings: 0.1 mg/ml, 20 mM sodium phosphate buffer pH 7, 20-95° C. at 1° C./min
Protocol: CD experiments for wild-type (WT) and active-site mutants were performed on a Chirascan CD spectrometer (Applied Photophysics) equipped with a thermoelectrically controlled cell holder. CD spectra were obtained in the far-UV range (190-260 nm) in a 1 mm path length quartz cuvette at 1 nm steps with 5 second signal averaging per data point. Spectra were collected in triplicate, followed by averaging, baseline subtraction, smoothing and conversion to mean residue ellipticity (MRE) by the Pro-Data software (Applied Photophysics). Secondary structure prediction was performed using the Provencher and Glockner method (Provencher S W & Glockner J (1981) Estimation of globular protein secondary structure from circular dichroism. Biochemistry 20(1):33-7) provided by DICHROWEB (Whitmore L & Wallace B A (2004) DICHROWEB, an online server for protein secondary structure analyses from circular dichroism spectroscopic data. Nucleic Acids Res 32:W668-73).
Melting experiments were performed by heating PlyGRCS at a 0.1 mg/ml concentration in 20 mM sodium phosphate buffer pH 7 from 20° C. to 95° C. using a 1° C./min heating rate. MRE was monitored at 218 nm in a 1 mm path length quartz cuvette at 0.5° C. steps with 5 second signal averaging per data point. The melting data was smoothed, normalized and fit with a Boltzmann sigmoidal curve. The first derivative of the melting curve was then taken to determine the temperature (Tm) at which the folded and unfolded protein species in solution were at equilibrium (Fallas J A & Hartgerink J D (2012) Computational design of self-assembling register-specific collagen heterotrimers. Nat Commun 3:1087).

[3] = system: S. aureus NRS-14 peptidoglycan; assay: dinitrosalicylic acid (DNSA) assay for reducing sugars; format: biochemical, Staphylococcus aureus; settings: 50 μg/ml, one hour, 37° C.
Bacillus pumulis, BJ0055 = assay: plate lysis assay (spectrum of lytic activity); format: cell-based; parameters: key: strong lytic zone = ++; weak lytic zone = +; no lytic zone = −; settings: 6 μg
Protocol: (§1) The PlyGRCS spectrum of lytic activity was performed (Schmelcher M et al. (2012) Chimeric phage lysins act synergistically with lysostaphin to kill mastitis-causing Staphylococcus aureus in murine mammary glands. Appl Environ Microbiol 78(7):2297-305) with minor modifications. Bacterial cells were diluted in sterile PBS to an OD600=1, and 100 μl was spread on each plate. 10 μl spots (600 μg/ml) of PlyGRCS or CHAPGRCS were applied. Plates were incubated overnight at 37° C. Strength of lytic zones was defined qualitatively.

[4] = system: Streptococcus uberis, ATCC 700407; assay: plate lysis assay (spectrum of lytic activity); format: cell-based; parameters: key: strong lytic zone = ++; weak lytic zone = +; no lytic zone = −; settings: 6 μg
Protocol: as §1

[5] = system: Streptococcus suis, 730082; assay: plate lysis assay (spectrum of lytic activity); format: cell-based; parameters: key: strong lytic zone = ++; weak lytic zone = +; no lytic zone = −; settings: 6 μg
Protocol: as §1

[6] = system: Enterococcus facealis, EF24; assay: plate lysis assay (spectrum of lytic activity); format: cell-based; parameters: key: strong lytic zone = ++; weak lytic zone = +; no lytic zone = −; settings: 6 μg
Protocol: as §1

[7] = system: Staphylococcus aureus, NRS-382; assay: plate lysis assay (spectrum of lytic activity); format: cell-based; parameters: key: strong lytic zone = ++; weak lytic zone = +; no lytic zone = −; settings: 6 μg; S. aureus NRS-382, MRSA
Protocol: as §1

[8] = system: Streptococcus equi, ATCC 9528; assay: plate lysis assay (spectrum of lytic activity); format: cell-based; parameters: key: strong lytic zone = ++; weak lytic zone = +; no lytic zone = −; settings: 6 μg
Protocol: as §1

[9] = system: Streptococcus pyogenes, D471; assay: plate lysis assay (spectrum of lytic activity); format: cell-based; parameters: key: strong lytic zone = ++; weak lytic zone = +; no lytic zone = −; settings: 6 μg
Protocol: as §1

[10] = system: Staphylococcus aureus, NRS-385; assay: plate lysis assay (spectrum of lytic activity); format: cell-based; parameters: key: strong lytic zone = ++; weak lytic zone = +; no lytic zone = −; settings: 6 μg; S. aureus NRS-385, MRSA
Protocol: as §1

[11] = system: Streptococcus pneumoniae, ATCC BAA-334; assay: plate lysis assay (spectrum of lytic activity); format: cell-based; parameters: key: strong lytic zone = ++; weak lytic zone = +; no lytic zone = −; settings: 6 μg
Protocol: as §1

[12] = highest dose of 28 to 1.75 μg/ml dose response

B1: PlyGRCS: endolysin of bacteriophage GRCS (ORF15), amino acids 1-250, SEQ ID NO: 5, C-terminal 6× His tag (protein)
chain: MKSQQQAKEWIYKHEGTGVDFDGAYGFQCMDLAVAYVYYITDGKVRMWGNAKDAINNDFKGLATVYENTPSFKPQLGDVAVYTNSQYGHIQCVISGNLDYYTCLEQNWLGGGFDGWEKATIRTHYYDGVTHFIRPKFSASNSNVLETSKVNTFGNWKQNQYGTYYRNENATFTCGFLPIFARVGSPKLSEPNGYWFQPNGYTPYDEVCLSDGLVWIGYNWQGTRYYLPVRQWNGKTGNSYSIGLPWGVFS
modifications: C-terminal 6xHis tag; Synthetically generated polypeptide (PlyGRCS phage (S. aureus))
decrease in optical density ([1]; 25 μg/mL): 70% | lytic activity of EDTA-treated enzyme with excess CaCl2, compared to prior to EDTA treatment ([1]; 5 mM EDTA then 6 mM CaCl2): nearly twice the lytic activity | lytic activity of EDTA-treated enzyme with magnesium ([1]; 5 mM EDTA then 6 mM MgCl2): mimicked that of the EDTA-treated sample | lytic activity after EDTA treatment ([1]; 5 mM EDTA, 10 minutes): devoid of lytic activity | decrease in activity by NaCl ([1]; 500 mM NaCl, BP buffer pH 7.0): ~35% | optimal pH for lytic activity ([1]; BP buffer, pH range 3.0 to 11.0): 7.0 | time to 50% decrease in optical density [1, 12]: < 10 min | decrease in optical density [1, 12]: 70% | Tm [2]: 43.5 °C | glycosidase activity (reducing sugar release) [3]: did not show any glycosidase activity | strength of lytic zone (Bacillus pumulis, BJ0055): − | strength of lytic zone [4]: − | strength of lytic zone [5]: − | strength of lytic zone [6]: − | strength of lytic zone [7]: + | strength of lytic zone [8]: − | strength of lytic zone [9]: − | strength of lytic zone [10]: + | strength of lytic zone [11]: −
